Assay results as given in publication PMC12462500.

Biological target: SNAP-tagged human melanocortin-4 receptor (SNAP-MC4R) (human) (UniProt P32245)
Sequence of UniProt P32245 (P32245 whole entry): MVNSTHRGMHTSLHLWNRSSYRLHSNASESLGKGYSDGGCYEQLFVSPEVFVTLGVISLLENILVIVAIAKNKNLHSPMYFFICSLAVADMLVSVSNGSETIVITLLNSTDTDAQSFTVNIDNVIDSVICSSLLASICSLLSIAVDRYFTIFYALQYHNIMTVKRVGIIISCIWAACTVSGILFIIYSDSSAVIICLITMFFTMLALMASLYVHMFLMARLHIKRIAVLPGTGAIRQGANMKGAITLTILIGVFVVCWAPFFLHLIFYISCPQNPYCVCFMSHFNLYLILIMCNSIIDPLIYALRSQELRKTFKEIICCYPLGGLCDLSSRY

Substance: α-MSH (peptide)
- EC50 of α-MSH-stimulated cAMP production (Epac-S^H187 FRET biosensor, HEK293), MC4R + mock: 4.5 nM
- EC50 of α-MSH-stimulated cAMP production (Epac-S^H187 FRET biosensor, HEK293), MC4R co-expressed with MRAP2 (1 + 1 or 1 + 4): 1.3 nM
